Measured values from patent US20150037339A1.

Assays:
[1] = target: Activin A (homodimer of two inhibin βA subunits; R&D Systems, #338-AC) (human) (UniProt P08476); test: SPR blocking: 5 nM Activin A + 60 nM binder over hActRIIA-hFc surface
[2] = target: Activin A (homodimer of two inhibin βA subunits; R&D Systems, #338-AC) (human) (UniProt P08476); test: SPR blocking: 5 nM Activin A + 3.75 nM binder over hActRIIB-hFc (Control 4) surface
[3] = target: Activin A (homodimer of two inhibin βA subunits; R&D Systems, #338-AC) (human) (UniProt P08476); test: SPR blocking: 5 nM Activin A + 15 nM binder over hActRIIB-hFc (Control 4) surface
[4] = target: Activin A (homodimer of two inhibin βA subunits; R&D Systems, #338-AC) (human) (UniProt P08476); test: SPR blocking: 5 nM Activin A + 0.94 nM binder over hActRIIA-hFc surface
[5] = target: Activin A (homodimer of two inhibin βA subunits; R&D Systems, #338-AC) (human) (UniProt P08476); test: SPR blocking: 5 nM Activin A + 0 nM binder over Follistatin-288 surface
[6] = target: Activin A (homodimer of two inhibin βA subunits; R&D Systems, #338-AC) (human) (UniProt P08476); test: SPR blocking: 5 nM Activin A + 1.88 nM binder over hActRIIB-hFc (Control 4) surface
[7] = target: Activin A (homodimer of two inhibin βA subunits; R&D Systems, #338-AC) (human) (UniProt P08476); test: SPR blocking: 5 nM Activin A + 15 nM binder over hActRIIA-hFc surface
[8] = target: Activin A (homodimer of two inhibin βA subunits; R&D Systems, #338-AC) (human) (UniProt P08476); test: SPR blocking: 5 nM Activin A + 1.88 nM binder over hActRIIA-hFc surface
[9] = target: Activin A (homodimer of two inhibin βA subunits; R&D Systems, #338-AC) (human) (UniProt P08476); test: SPR blocking: 5 nM Activin A + 3.75 nM binder over Follistatin-288 surface
[10] = target: Activin A (homodimer of two inhibin βA subunits; R&D Systems, #338-AC) (human) (UniProt P08476); test: SPR blocking: 5 nM Activin A + 30 nM binder over hActRIIA-hFc surface
[11] = target: Activin A (homodimer of two inhibin βA subunits; R&D Systems, #338-AC) (human) (UniProt P08476); test: SPR blocking: 5 nM Activin A + 7.5 nM binder over Follistatin-288 surface
[12] = target: Activin A (homodimer of two inhibin βA subunits; R&D Systems, #338-AC) (human) (UniProt P08476); test: SPR blocking: 5 nM Activin A + 30 nM binder over hActRIIB-hFc (Control 4) surface
[13] = target: Activin A (homodimer of two inhibin βA subunits; R&D Systems, #338-AC) (human) (UniProt P08476); test: SPR blocking: 5 nM Activin A + 15 nM binder over Follistatin-288 surface
[14] = target: Activin A (homodimer of two inhibin βA subunits; R&D Systems, #338-AC) (human) (UniProt P08476); test: SPR blocking: 5 nM Activin A + 0.94 nM binder over hActRIIB-hFc (Control 4) surface
[15] = target: Activin A (homodimer of two inhibin βA subunits; R&D Systems, #338-AC) (human) (UniProt P08476); test: SPR blocking: 5 nM Activin A + 7.50 nM binder over hActRIIB-hFc (Control 4) surface
[16] = target: Activin A (homodimer of two inhibin βA subunits; R&D Systems, #338-AC) (human) (UniProt P08476); test: SPR blocking: 5 nM Activin A + 0.00 nM binder over hActRIIA-hFc surface
[17] = target: Activin A (homodimer of two inhibin βA subunits; R&D Systems, #338-AC) (human) (UniProt P08476); test: SPR blocking: 5 nM Activin A + 60 nM binder over hActRIIB-hFc (Control 4) surface
[18] = target: Activin A (homodimer of two inhibin βA subunits; R&D Systems, #338-AC) (human) (UniProt P08476); test: SPR blocking: 5 nM Activin A + 0.00 nM binder over hActRIIB-hFc (Control 4) surface
[19] = target: Activin A (homodimer of two inhibin βA subunits; R&D Systems, #338-AC) (human) (UniProt P08476); test: SPR blocking: 5 nM Activin A + 60 nM binder over Follistatin-288 surface
[20] = target: Activin A (homodimer of two inhibin βA subunits; R&D Systems, #338-AC) (human) (UniProt P08476); test: SPR blocking: 5 nM Activin A + 30 nM binder over Follistatin-288 surface
[21] = target: Activin A (homodimer of two inhibin βA subunits; R&D Systems, #338-AC) (human) (UniProt P08476); test: SPR blocking: 5 nM Activin A + 1.88 nM binder over Follistatin-288 surface
[22] = target: Activin A (homodimer of two inhibin βA subunits; R&D Systems, #338-AC) (human) (UniProt P08476); test: SPR blocking: 5 nM Activin A + 3.75 nM binder over hActRIIA-hFc surface
[23] = target: Activin A (homodimer of two inhibin βA subunits; R&D Systems, #338-AC) (human) (UniProt P08476); test: SPR blocking: 5 nM Activin A + 0.94 nM binder over Follistatin-288 surface
[24] = target: Activin A (homodimer of two inhibin βA subunits; R&D Systems, #338-AC) (human) (UniProt P08476); test: SPR blocking: 5 nM Activin A + 7.50 nM binder over hActRIIA-hFc surface
[25] = target: hBMP6 (human) (UniProt P22004); test: SPR (Biacore 4000), captured on anti-human Fc, 200 nM ligand injected, 37 C
[26] = target: GDF8 (human) (UniProt O14793); test: as above
[27] = target: Activin B (human) (UniProt P09529); test: as above
[28] = target: Activin A (human) (UniProt P08476); test: as above
[29] = target: hBMP4 (human) (UniProt P12644); test: as above
[30] = target: hBMP9 (human) (UniProt Q9UK05); test: as above
[31] = target: Activin AB (human) (UniProt P08476); test: as above
[32] = target: hBMP7 (human) (UniProt P18075); test: as above
[33] = target: hBMP2 (human) (UniProt P12643); test: as above
[34] = target: hBMP10 (human) (UniProt O95393); test: as above
[35] = target: GDF11 (human) (UniProt O95390); test: as above
[36] = target: Activin AC (human) (UniProt P55103); test: as above
[37] = target: Activin A (human) (UniProt P08476); test: Octet cross-competition; binder on sensor tip; 50 nM hActivin A pre-bound with 1 uM H4H10446P2 (col 1); dark grey box
[38] = target: Activin A (human) (UniProt P08476); test: Octet cross-competition; binder on sensor tip; 50 nM hActivin A pre-bound with 1 uM Control 3 (col 11); dark grey box
[39] = target: Activin A (human) (UniProt P08476); test: Octet cross-competition; binder on sensor tip; 50 nM hActivin A pre-bound with 1 uM H4H10432P2 (col 7); dark grey box
[40] = target: Activin A (human) (UniProt P08476); test: Octet cross-competition; binder on sensor tip; 50 nM hActivin A pre-bound with 1 uM H4H10423P (col 4); dark grey box
[41] = target: Activin A (human) (UniProt P08476); test: Octet cross-competition; binder on sensor tip; 50 nM hActivin A mixed with 1 uM Isotype control 13 (-) (col 13); light grey box (self)
[42] = target: Activin A (human) (UniProt P08476); test: Octet cross-competition; binder on sensor tip; 50 nM hActivin A pre-bound with 1 uM H4H10429P (col 6); dark grey box
[43] = target: Activin A (human) (UniProt P08476); test: Octet cross-competition; binder on sensor tip; 50 nM hActivin A mixed with 1 uM Isotype control 12 (-) (col 12); light grey box (self)
[44] = target: Activin A (human) (UniProt P08476); test: Octet cross-competition; binder on sensor tip; 50 nM hActivin A pre-bound with 1 uM Control 1 (col 10); dark grey box

Chain of Activin A (homodimer of two inhibin βA subunits; R&D Systems, #338-AC) (human) (P08476 311-426 limits assumed): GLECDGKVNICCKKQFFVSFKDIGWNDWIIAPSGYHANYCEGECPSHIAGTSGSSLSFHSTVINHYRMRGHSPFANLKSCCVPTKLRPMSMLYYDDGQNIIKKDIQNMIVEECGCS
Chain of Activin A (human) (P08476 311-426 limits assumed): as above
Chain of GDF11 (human) (O95390 299-407 limits assumed): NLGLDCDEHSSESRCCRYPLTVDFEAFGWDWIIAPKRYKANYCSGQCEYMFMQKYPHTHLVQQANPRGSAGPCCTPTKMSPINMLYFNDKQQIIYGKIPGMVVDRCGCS
Chain of hBMP4 (human) (P12644 293-408 limits assumed): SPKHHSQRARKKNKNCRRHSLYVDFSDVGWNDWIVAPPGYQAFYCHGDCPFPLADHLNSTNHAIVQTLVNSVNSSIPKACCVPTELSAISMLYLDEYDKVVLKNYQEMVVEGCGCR
Chain of hBMP10 (human) (O95393 317-424 limits assumed): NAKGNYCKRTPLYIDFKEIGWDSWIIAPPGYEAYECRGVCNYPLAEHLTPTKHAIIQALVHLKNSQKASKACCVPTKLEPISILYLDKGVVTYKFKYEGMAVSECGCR
Chain of hBMP9 (human) (Q9UK05 320-429 limits assumed): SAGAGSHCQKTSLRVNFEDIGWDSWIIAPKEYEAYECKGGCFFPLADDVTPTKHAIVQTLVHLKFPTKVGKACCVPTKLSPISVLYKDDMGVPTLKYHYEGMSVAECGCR
Chain of Activin AB (human) (P08476 311-426 limits assumed, chain 1 of 2): as the sequence (P08476 311-426 limits assumed) above
Chain of Activin AB (human) (chain, as listed by the source limits assumed, chain 2 of 2): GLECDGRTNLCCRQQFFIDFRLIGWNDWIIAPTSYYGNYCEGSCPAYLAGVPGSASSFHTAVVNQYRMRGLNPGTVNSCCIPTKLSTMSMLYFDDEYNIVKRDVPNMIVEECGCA
Chain of Activin AC (human) (chain, as listed by the source, chain 1 of 2): as the sequence (P08476 311-426 limits assumed) above
Chain of Activin AC (human) (P55103 237-352, chain 2 of 2): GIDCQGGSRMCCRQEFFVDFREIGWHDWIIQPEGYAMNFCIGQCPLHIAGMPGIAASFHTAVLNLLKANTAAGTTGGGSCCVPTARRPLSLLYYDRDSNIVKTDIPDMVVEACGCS
Chain of hBMP6 (human) (P22004 382-513 limits assumed): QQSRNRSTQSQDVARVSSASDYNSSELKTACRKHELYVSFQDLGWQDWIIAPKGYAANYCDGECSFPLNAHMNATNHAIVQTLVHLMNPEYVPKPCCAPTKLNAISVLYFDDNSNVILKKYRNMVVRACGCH
Chain of hBMP2 (human) (P12643 283-396 limits assumed): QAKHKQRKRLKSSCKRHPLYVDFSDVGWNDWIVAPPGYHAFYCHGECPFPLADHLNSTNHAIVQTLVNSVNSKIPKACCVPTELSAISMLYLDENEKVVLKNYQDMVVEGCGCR
Chain of Activin B (human) (P09529 293-407 G326S limits assumed): as the sequence (chain, as listed by the source limits assumed, chain 2 of 2) above
Chain of hBMP7 (human) (P18075 293-431 limits assumed): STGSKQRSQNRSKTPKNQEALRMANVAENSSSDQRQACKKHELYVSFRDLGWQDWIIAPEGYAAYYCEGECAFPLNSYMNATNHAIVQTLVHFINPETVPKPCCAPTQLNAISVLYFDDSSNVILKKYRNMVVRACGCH

| % bound RU w/no inhibitor [1] | % bound RU w/no inhibitor [2] | % bound RU w/no inhibitor [3] | % bound RU w/no inhibitor [4] | % bound RU w/no inhibitor [5] | % bound RU w/no inhibitor [6] | % bound RU w/no inhibitor [7] | % bound RU w/no inhibitor [8] | % bound RU w/no inhibitor [9] | % bound RU w/no inhibitor [10] | % bound RU w/no inhibitor [11] | % bound RU w/no inhibitor [12] | % bound RU w/no inhibitor [13] | % bound RU w/no inhibitor [14] | % bound RU w/no inhibitor [15] | % bound RU w/no inhibitor [16] | % bound RU w/no inhibitor [17] | % bound RU w/no inhibitor [18] | % bound RU w/no inhibitor [19] | % bound RU w/no inhibitor [20] | Substance | further results |
| --- | --- | --- | --- | --- | --- | --- | --- | --- | --- | --- | --- | --- | --- | --- | --- | --- | --- | --- | --- | --- | --- |
| 0% | 120% | 2% | 207% | 100% | 133% | 1% | 190% | 145% | 1% | 33% | 1% | 5% | 135% | 33% | 100% | 2% | 100% | 9% | 7% | Control 3 (murine anti-Activin A monoclonal antibody from R&D Systems, catalog number MAB3381) | % bound RU w/no inhibitor [21]: 170%; % bound RU w/no inhibitor [22]: 139%; % bound RU w/no inhibitor [23]: 172%; % bound RU w/no inhibitor [24]: 32% |
|  |  |  |  |  |  |  |  |  |  |  |  |  |  |  |  |  |  |  |  | Isotype Control mAb (antibody) | binding response (resonance units) for 200 nM ligand [25]: 5.1 RU; binding response (resonance units) for 200 nM ligand [26]: 0.5 RU; binding response (resonance units) for 200 nM ligand [27]: 1.9 RU; binding response (resonance units) for 200 nM ligand [28]: -0.1 RU; binding response (resonance units) for 200 nM ligand [29]: 0.4 RU; binding response (resonance units) for 200 nM ligand [30]: -1 RU; binding response (resonance units) for 200 nM ligand [31]: -0.1 RU; binding response (resonance units) for 200 nM ligand [32]: 4.3 RU; binding response (resonance units) for 200 nM ligand [33]: -1 RU; binding response (resonance units) for 200 nM ligand [34]: 0.3 RU; binding response (resonance units) for 200 nM ligand [35]: 3 RU; binding response (resonance units) for 200 nM ligand [36]: -0.1 RU |
|  |  |  |  |  |  |  |  |  |  |  |  |  |  |  |  |  |  |  |  | isotype control antibodies (antibody) | binding response [37]: 0.22; binding response [38]: 0.2; binding response [39]: 0.14; binding response [40]: 0.18; binding response [41]: 0.24; binding response [42]: 0.22; binding response [43]: 0.15; binding response [44]: 0.26 |
| 119% | 104% | 110% | 109% | 100% | 105% | 116% | 112% | 97% | 118% | 102% | 111% | 102% | 105% | 107% | 100% | 115% | 100% | 103% | 104% | isotype control antibody (Example 8) | % bound RU w/no inhibitor [21]: 102%; % bound RU w/no inhibitor [22]: 110%; % bound RU w/no inhibitor [23]: 100%; % bound RU w/no inhibitor [24]: 115% |
